In publication PMC6329974 (Proceedings of the National Academy of Sciences of the …, 2018):
Blank lines part the entries; values can stand above or below the binder they belong to.

B1: CP α-subunit from Archaeoglobus fulgidus (natural protein, UniProt O29760 1-246, looked up)
chain: MHLPQMGYDRAITVFSPDGRLFQVEYAREAVKRGATAIGIKCKEGVILIADKRVGSKLLEADTIEKIYKIDEHICAATSGLVADARVLIDRARIEAQINRLTYDEPITVKELAKKICDFKQQYTQYGGVRPFGVSLLIAGVDEVPKLYETDPSGALLEYKATAIGMGRNAVTEFFEKEYRDDLSFDDAMVLGLVAMGLSIESELVPENIEVGYVKVDDRTFKEVSPEELKPYVERANERIRELLKK
B3: proteasome-activating nucleotidase (PAN) from Archaeoglobus fulgidus (enzyme, UniProt O28303 1-398, looked up)
chain: MGDSEIQYLLEKLKKLEEDYYKLRELYRRLEDEKKFIESERIRYEREVRRLRSEVERLRSPPLLVGVVSDILEDGRVVVKSSTGPKFVVNTSQYINEEELKPGARVALNQQTLAIVNVLPTSKDPMVYGFEVEEKPEVSYEDIGGLDVQIEEIREAVELPLLKPELFAEVGIEPPKGVLLYGPPGTGKTLLAKAVANQTRATFIRVVGSEFVQKYIGEGARLVREVFQLAKEKAPSIIFIDELDAIAARRTNSDTSGDREVQRTMMQLLAELDGFDPRGDVKVIGATNRIDILDPAILRPGRFDRIIEVPLPTFEGRIQIFKIHTRKMKLAEDVDFKELARITEGASGADIKAICTEAGMFAIREERAKVTMLDFTKAIEKVLKKTTPIPDLKGVMFV

What was measured:
Assay in all cases: cryo-EM structure
[1] = molecular target: B3
[2] = molecular target: B1
cryo-EM structure [3] = molecular target: the molecule itself
cryo-EM structure [4] = molecular target: the molecule itself; remark: listed apart in the source

Binder: B1
binding result [1]: binds

binding result [2]: binds
B2: CP β-subunit from Archaeoglobus fulgidus (natural protein, UniProt Q9P996 12-213, looked up)
chain: TTTVGLVCKDGVVMATEKRATMGNFIASKAAKKIYQIADRMAMTTAGSVGDAQFLARIIKIEANLYEIRRERKPTVRAIATLTSNLLNSYRYFPYLVQLLIGGIDSEGKSIYSIDPIGGAIEEKDIVATGSGSLTAYGVLEDRFTPEIGVDEAVELAVRAIYSAMKRDSASGDGIDVVKITEDEFYQYSPEEVEQILAKFRK
binding result (cryo-EM structure [3]): binds

Binder: B3
stoichiometry N (cryo-EM structure [4]): 6
